Test results reported in the supplement of paper PMC10567573.
± gives the standard deviation.

Experiment: protein stability index of a GFP-peptide fusion (GPS, HEK-293T) (PSI 1-6); higher = more stable
[1] = treatment: DMSO, c terminus: a fixed tail appended
[2] = treatment: MLN4924 1 uM, 8 h, c terminus: a fixed tail appended
[3] = treatment: DMSO, c terminus: native
[4] = treatment: MLN4924 1 uM, 8 h, c terminus: native
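Note: 24-mer peptide tiles fused after GFP, lentivirally expressed, FACS-sorted into six equal bins by GFP/DsRed ratio, decoded by Illumina sequencing, PSI is the read-weighted mean bin number.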

Row | Sequence | protein stability index [1] | protein stability index [2] | protein stability index [3] | protein stability index [4]
1 | AAAFPTEDSRTSKESMSEADRAQK [EHMT1] | 5.59 ± 0.25 | 5.514 ± 0.053 | – | –
2 | AADGETNGSCENSDASSHANAAKH [EHMT1] | 5.51 ± 0.12 | 5.35 ± 0.14 | – | –
3 | AAIGVTTSPVLPSLIQLLGRNFIL [HACD3] | 2.67 ± 0.19 | 2.55 ± 0.6 | – | –
4 | AAMEGATLDQTTSEEAPGGTELIQ [HDAC6] | 5.64 ± 0.12 | 5.47 ± 0.22 | – | –
5 | AARPDVKCVVHIHTPAGAAVSAMK [ADD1] | 2.95 ± 0.28 | 3.11 ± 0.28 | – | –
6 | AAVVTSPPPTTAPHKERYFDRVDE [ADD1] | 4.77 ± 0.44 | 4.73 ± 0.34 | – | –
7 | ADADCFVCVFLSHGEGNHIYAYDA [CASP6] | 2.82 ± 0.66 | 2.81 ± 0.75 | – | –
8 | ADDESLLRTSNGQPVKTAGEITQH [DNAAF3] | 5.26 ± 0.35 | 5.26 ± 0.2 | – | –
9 | ADDPTSGFSSIPDAFWWAVVTMTT [KCNA3] | 2.94 ± 0.92 | 2.6 ± 0.4 | – | –
10 | ADGFGDNPFYHCLVAEILPAPGKL [SAT2] | 2.27 ± 0.14 | 2.37 ± 0.42 | – | –
11 | ADLSSGSSGEDDDFKSCPQGPQGR [PWWP2B] | 5.36 ± 0.15 | 5.52 ± 0.13 | – | –
12 | ADPMDWSPSNVQKWLLWTEHQYRL [SPDEF] | 2.47 ± 0.21 | 2.43 ± 0.35 | – | –
13 | ADQWKSSNKSLVEALGLEAEGAVP [RHOBTB1] | 5.1 ± 0.17 | 4.83 ± 0.22 | – | –
14 | ADRCSPKEDQAWDGASQDCPPLPA [FBXO34] | 5.27 ± 0.18 | 4.99 ± 0.14 | – | –
15 | ADSGADPKGEPGSKQSPPMASSPI [FBF1] | 5.44 ± 0.26 | 5.51 ± 0.15 | – | –
16 | ADSQITTIGNLVPQKTYSVKVLAF [PTPRD] | 2.46 ± 0.56 | 2.17 ± 0.28 | – | –
17 | ADTKKRHTPRGHAESTSNRQPRKQ [SMOC2] | 5.34 ± 0.2 | 5.29 ± 0.15 | – | –
18 | AEAEPEDQDEGEWGLDQEQVFSLG [ZBED1] | 5.34 ± 0.44 | 5.52 ± 0.44 | – | –
19 | AELQCEVAALREEQKVLSRLVESL [RASAL3] | 4.09 ± 0.23 | 3.94 ± 0.37 | – | –
20 | AFPGASHESSGNPPLRVIVKDALF [RHOBTB3] | 2.96 ± 0.28 | 3.25 ± 0.41 | – | –
21 | AFQLLRRFVQAEGRRATLQRLVEA [TRADD] | 2.19 ± 0.15 | 2.26 ± 0.38 | – | –
22 | AGEGLPQVYYFGPCGKYNAMVLEL [CSNK1G1] | 3.19 ± 0.65 | 2.65 ± 0.94 | – | –
23 | AGNDDSFGSLPSPKELSSFSFSMK [DLC1] | 3.75 ± 0.2 | 3.87 ± 0.21 | – | –

Row | Sequence | protein stability index [1] | protein stability index [2] | protein stability index [3] | protein stability index [4]
24 | AGSSNLPAPERTMAGLSKEPNTLR [VENTX] | 4.48 ± 0.45 | 4.71 ± 0.47 | – | –
25 | AGTSSHGCWAWPLAGLSVGRSSLT [PXN] | 2.5 ± 0.26 | 2.61 ± 0.26 | – | –
26 | AHHPLHPHLMQEHMGTNVIVANTM [HNF4A] | 3.2 ± 0.23 | 3.21 ± 0.17 | – | –
27 | AHRAILVARCEVMAAMFNGNYMEA [RHOBTB3] | 2.54 ± 0.95 | 2.08 ± 0.97 | – | –
28 | AIEKAFQLWSNVTPLTFTKVSEGQ [MMP1] | 2.45 ± 0.49 | 2.3 ± 0.33 | – | –
29 | AISPGRFPEALDELPLPPFLQPLD [ANKRD9] | 3.91 ± 0.32 | 3.96 ± 0.18 | – | –
30 | AKIEVEKLKAIRLRHDLPEYNSL [RAD54B] | – | – | 3.62 ± 0.21 | 3.81 ± 0.2
31 | AKVKPFDPKITCKQECLITTFQDV [TPH1] | 2.75 ± 0.52 | 2.42 ± 0.52 | – | –
32 | ALGAPSKSPSSPQAAFTQQGMEGI [TBX5] | 4.59 ± 0.37 | 4.51 ± 0.19 | – | –
33 | ALKAAKREQEKKPKKEANQAPKSK [LRRC59] | 5.24 ± 0.27 | 5.28 ± 0.18 | – | –
34 | ALPSSAPSGPPPPPPSVLGVGPVA [WASL] | 4.54 ± 0.15 | 4.82 ± 0.25 | – | –
35 | ALQEYSSISEKLSSTNFAMKRDVQ [C8orf76] | 3.26 ± 0.18 | 3.48 ± 0.43 | – | –
36 | AMDLGFFVVMGVIGGLLGATFNCL [CLCN6] | 2.68 ± 0.13 | 3.19 ± 0.056 | – | –
37 | AMFTGGMKEQDLMCIKLHGVSKVG [KLHL13] | 2.54 ± 0.42 | 2.58 ± 0.33 | – | –
38 | ANGEVTYSFRKLPDTQLLKFQLNK [PCDHGA10] | 2.83 ± 0.33 | 2.85 ± 0.24 | – | –
39 | ANPFQAYLDVDLTLTREQTERLSH [RTN2] | 3.65 ± 0.3 | 3.67 ± 0.31 | – | –
40 | APALPPGGTDPHGYHQVPGSAAPG [FOXJ1] | 5.16 ± 0.18 | 5.38 ± 0.4 | – | –
41 | APGEEEEEEEEATNTHPPASLPSQ [CHGA] | 5.57 ± 0.34 | 5.71 ± 0.19 | – | –
42 | APPLQAETPGSAVDYPLHDLVLHT [TNXB] | 4.16 ± 0.23 | 4.17 ± 0.2 | – | –
43 | AQEALREKAAALERQLKVMASDHR [LRRC45] | 4.26 ± 0.27 | 4.29 ± 0.23 | – | –
44 | AQTIPTKDRLEGLLAFKEKRPPRY [AUH] | 3.73 ± 0.24 | 4.06 ± 0.24 | – | –
45 | ARIRSHSWLESCIVGWRCRVGQWV [GMPPB] | 2.27 ± 0.3 | 2.262 ± 0.009 | – | –
46 | ARKYFERLPGGGWTLRRTKELRKD [DYRK1B] | 3.66 ± 0.45 | 3.86 ± 0.44 | – | –

Row | Sequence | protein stability index [1] | protein stability index [2] | protein stability index [3] | protein stability index [4]
47 | ARLKKVLIVGAPIWFRVPYSIISL [PTPN9] | 3.32 ± 0.79 | 2.58 ± 1 | – | –
48 | ASENHGCEHECVNADGSYLCQCHE [MATN2] | 5.46 ± 0.17 | 5.49 ± 0.38 | – | –
49 | ASQPVKKQQENATSCSLELIGDLI [WDR41] | 3.47 ± 0.27 | 3.45 ± 0.38 | – | –
50 | ASSASAFLTAPLLEFLLALYFLFA [CMTM3] | 2.34 ± 0.79 | 2.63 ± 0.88 | – | –
51 | ASYSGKAADVWSLGVALFTMLAGH [TRIB3] | 2.99 ± 0.43 | 2.75 ± 0.54 | – | –
52 | ATLFFHYIKTPLFNPEVAKYLKVP [IQUB] | 2.93 ± 0.21 | 2.57 ± 0.66 | – | –
53 | ATNQCTIDKNRRKSCQACRLRKCY [ESR2] | 3.39 ± 0.25 | 3.47 ± 0.18 | – | –
54 | ATNSSWVVVFKALVTTHHLMVHGN [SNAP91] | 3.43 ± 0.31 | 3.4 ± 0.28 | – | –
55 | AVATIVKPLSAIPQPTITKQEVI [HNF4A] | – | – | 2.43 ± 0.28 | 2.37 ± 0.19
56 | AVCMFLASKLKETSPLTAEKLCIY [CCND2] | 2.84 ± 0.61 | 2.44 ± 0.56 | – | –
57 | AVGGRLRLVPGGQRPADVPEPGRA [HAGHL] | 4.22 ± 0.38 | 4.16 ± 0.43 | – | –
58 | AVIQHRPSRQYATLDVYNPFETRE [SCAMP3] | 3.42 ± 0.23 | 3.39 ± 0.27 | – | –
59 | AVLYPRFMGTISDVKTNVQLLKGR [CD207] | 2.49 ± 0.11 | 2.56 ± 0.16 | – | –
60 | AYLELEITLSQEQIQKYTDCLQFY [RTN1] | 2.57 ± 0.4 | 3.04 ± 0.86 | – | –
61 | CEALEDSDGRQDSPAGELPKTVQQ [MATN2] | 5.55 ± 0.33 | 5.56 ± 0.17 | – | –
62 | CFQDFKEEKPQENKTWREQYLRLP [ELOA2] | 3.15 ± 0.35 | 3.25 ± 0.41 | – | –
63 | CGSQLSSTKGSRSNLSTRDASILT [NETO1] | 2.62 ± 0.2 | 2.65 ± 0.21 | – | –
64 | CPHTPEFSVTGGTEEKSSLLMSCL [RPAIN] | 3.38 ± 0.22 | 3.49 ± 0.074 | – | –
65 | CPPGGIHQVTVNESLLAPLNVELD [KRT71] | 4.63 ± 0.29 | 4.54 ± 0.23 | – | –
66 | CPTLIYRETYPRTPYVRWNYVAKN [SOAT2] | 2.06 ± 0.23 | 2.36 ± 0.39 | – | –
67 | CSCEWMAAMFGGSFVESANSEVYL [RHOBTB1] | 2.96 ± 0.62 | 2.85 ± 0.89 | – | –
68 | CTLRQKLIFSPCSDCEEEEEEEEE [WEE1] | 5.04 ± 0.27 | 5 ± 0.26 | – | –
69 | DAFWWAVVTMTTVGYGDMHPVTIG [KCNA3] | 3.67 ± 0.52 | 3.17 ± 0.31 | – | –

Row | Sequence | protein stability index [1] | protein stability index [2] | protein stability index [3] | protein stability index [4]
70 | DAISWYQKKIGAYDQQIWEKSIEQ [PHTF1] | 2.77 ± 0.037 | 2.79 ± 0.34 | – | –
71 | DALDKIRYESLTDPSKLDSGKELK [HSP90AB1] | 5.06 ± 0.1 | 5 ± 0.16 | – | –
72 | DCPKIVEPHGKMFNEQTWEVSQQD [ZSCAN9] | 5.16 ± 0.089 | 5.18 ± 0.11 | – | –
73 | DCVDGLFKEVKEKFKGWVSYSTSE [DLC1] | 3.04 ± 0.5 | 3.33 ± 0.3 | – | –
74 | DDFDEDELMAELEELEQEELNKKM [CHMP4C] | 5.16 ± 0.85 | 5.6 ± 0.3 | – | –
75 | DELDMSPGDPKWLDVIERDLHRQF [TBC1D10A] | 3.84 ± 0.21 | 3.8 ± 0.12 | – | –
76 | DERRRLLEQKTQESQKKKQQDDSD [ZNF207] | 5.54 ± 0.33 | 5.53 ± 0.25 | – | –
77 | DFLEEVEEIVFNLTNNVDLDNTKK [MNAT1] | 3.03 ± 0.38 | 3.18 ± 0.26 | – | –
78 | DFVLEMNTAKSTSRVTAFLDDLSQ [NLN] | 2.75 ± 0.26 | 2.72 ± 0.33 | – | –
79 | DGDAPGSLLPAQVAACAQTVVSLA [CEBPD] | 4.26 ± 0.19 | 4.12 ± 0.39 | – | –
80 | DGITNGASWYSLSKGMQDFNYLHT [CPN1] | 2.35 ± 0.13 | 2.43 ± 0.22 | – | –
81 | DGKPFPELVLEQQLDREAQARHQL [PCDHGC5] | 4.92 ± 0.33 | 5.04 ± 0.27 | – | –
82 | DGKRCRRKDVCKSTHHGCEHICVN [MATN2] | 3.65 ± 0.3 | 3.92 ± 0.21 | – | –
83 | DGSTYKIELEGISVMVMREILDYI [GAN] | 2.3 ± 0.39 | 1.93 ± 0.15 | – | –
84 | DHELGRCTDSVVKYELMRPSNKAP [EHMT1] | 4.19 ± 0.091 | 4.23 ± 0.31 | – | –
85 | DHKRETERVVREALEKLRSEMEEE [ZMYND11] | 4.99 ± 0.18 | 5.35 ± 0.12 | – | –
86 | DIKAAFAPFGRISDARVVKDMATG [TIA1] | 3.31 ± 0.16 | 3.18 ± 0.4 | – | –
87 | DLIGLPWVCFIYTIMSLASLLFVV [SLC2A12] | 4.15 ± 0.79 | 3.95 ± 0.71 | – | –
88 | DLLAYGAKAELPKYKSFNRTAMPY [MYOZ1] | 2.42 ± 0.12 | 2.29 ± 0.19 | – | –
89 | DLLCAQLQLPQLSDLGLLRLCTWL [FANCE] | 2.53 ± 0.35 | 2.78 ± 0.42 | – | –
